Data: paper PMC4464295, “Orthogonal dual-modification of proteins for the engineering of multivalent protein scaffolds” (Beilstein Journal of Organic Chemistry, 2015)

T1: Erythrina cristagalli lectin (Erythrina cristagalli, UniProt P83410 1-239)
T1 construct: also called ECL
T1 sequence (looked up): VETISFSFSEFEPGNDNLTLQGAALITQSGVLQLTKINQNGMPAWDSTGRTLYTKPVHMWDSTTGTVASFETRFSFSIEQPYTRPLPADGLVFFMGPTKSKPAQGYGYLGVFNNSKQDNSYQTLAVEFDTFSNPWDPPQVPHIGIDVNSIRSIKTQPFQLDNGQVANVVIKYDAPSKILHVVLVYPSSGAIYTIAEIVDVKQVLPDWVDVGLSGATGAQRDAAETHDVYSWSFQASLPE

B1: Biotinylated thermophilic lipase from Thermoanaerobacter thermohydrosulfuricus with azidohomoalanine, carrying 1-2 galactose units (Gal-1) (enzyme)
chain: SQKAVEITYNGKTLRGMMHLPDDVKGKVPMVIMFHGFTGNKVESHFIFVKMSRALEKVGIGSVRFDFYGSGESDGDFSEMTFSSELEDARQILKFVKEQPTTDPERIGLLGLSMGGAIAGIVAREYKDEIKALVLWAPAFNMPELIMHESVKQYGAIMEQLGFVDIGGHKLSKDFVEDISKLNIFELSKGYDKKVLIVHGTNDEAVEYKVSDRILKEVYGDNATRVTIENADHTFKSLEWEKKAIEESVEFFKKELLKG
modifications: all Met replaced by azidohomoalanine (Aha), nine Aha residues; N-terminal Met/Aha excised; N-terminal Ser (Ser2) oxidised with NaIO4 to the aldehyde and joined to biotin hydroxylamine 1 by oxime ligation; 1-2 Aha residues joined to butynyl galactose 2 by CuAAC (positions not given)
B2: Biotinylated thermophilic lipase from Thermoanaerobacter thermohydrosulfuricus with azidohomoalanine, carrying 3-4 galactose units (Gal-3) (enzyme)
chain: B1 chain
modifications: all Met replaced by azidohomoalanine (Aha), nine Aha residues; N-terminal Met/Aha excised; N-terminal Ser (Ser2) oxidised with NaIO4 to the aldehyde and joined to biotin hydroxylamine 1 by oxime ligation; 3-4 Aha residues joined to butynyl galactose 2 by CuAAC (positions not given; two found by MS/MS, Table S5)

Biological target: T1, Erythrina cristagalli lectin
Test: SPR; BiacoreX; biotinylated TTL sample on streptavidin chip loaded to one third; at least five ECL concentrations (Gal-0 once at 100 µM ECL); equilibrium binding, Langmuir isotherm fit; KDs determined twice
Details: both partners purified

Binder	Kd
B1	70 µM
B2	60 µM
